Biological target: M1-linked di-ubiquitin (UniProt P0CG48 1-76; P0CG48 1-76)
Assay: ITC

Kd: 15.9 µM
B1: mouse HOIL-1L NZF domain (residues Pro192-Gln250) T207E (domain or fragment)
chain: GPLGSPEPVGWQCPGCTFINKPERPGCEMCCRARPETYQIPASYQPDEEERARLAGEEEALRQYQQ
